These results are taken from paper PMC11667672.

In data set [1] the target is Cys145 (UniProt position 3385, FLNGSCGSVGF). The experiment in a line: chemical modification. The following applies: cited from earlier work.
In data set [2] the target is T1, Cys145 (UniProt position 3408, FLNGSCGSVGF). As to the kind of experiment: kinetics. The following applies: 150 mM NaCl in constant-ionic-strength mixed buffers.
Data set [3] concerns the target T2, His41 (UniProt position 3304, VYCPRHVICTS). As to the kind of experiment: kinetics. The note with it: 150 mM NaCl in constant-ionic-strength mixed buffers.
The target of data set [4] is T1, Cys145. As to the kind of experiment: chemical modification. The note with it: preincubation with IAM on ice; residual activity assayed at 25 °C (Table 1 footnote says 25 °C); 150 mM NaCl in constant-ionic-strength mixed buffers; free enzyme (apo), 2 µM.
Data set [5] concerns the target T2, His41. The experiment in a line: chemical modification. The following applies: preincubation with DEPC on ice for 10-60 s; residual activity assay temperature per Table 1 footnote 25 °C; 150 mM NaCl in constant-ionic-strength mixed buffers; free enzyme (apo), 2 µM.
The mark [6] stands for this setting: 25 °C (Table 1 footnote), apo (free) enzyme.
Setting [7] is: 25 °C, free enzyme (kcat/Ka reports on free enzyme and free substrate).
Where [8] appears, read: 25 °C, free enzyme binding the inhibitor.

Consider “3-chymotrypsin-like protease (3CLpro, Main protease, nsp5) (Severe acute respiratory syndrome coronavirus (SARS-CoV))”, for which the pKa (as a rule, the negative logarithm of the acid dissociation constant) with Cys145 [1] was 7.8 ± 0.1.
In the case of “3-chymotrypsin-like protease (3CL-PR; Main protease, Mpro, nsp5) (Severe acute respiratory syndrome coronavirus 2 (SARS-CoV-2))”, the pKa with Cys145 [2] (setting [6]) worked out at 8.2 ± 0.4; with Cys145 [2] (setting [7]), 8.39 ± 0.07; in the data set with Cys145 [2] (setting [8]), 8.5 ± 0.1; with Cys145 [2] (25 °C, free enzyme in D2O), 9.06 ± 0.06; in the data set with His41 [3] (setting [6]) it was 6.2 ± 0.3; with His41 [3] (setting [7]), 5.9 ± 0.1. Besides, the pKa was 6.5 ± 0.2 with His41 [3] (setting [8]); 6.10 ± 0.07 with His41 [3] (25 °C, free enzyme in D2O); 7.8 ± 0.1 with Cys145 [4]; 6.05 ± 0.07 with His41 [5].
